In data set [1] the target is MtHPt1 (histidine-containing phosphotransfer protein 1 of Medicago truncatula) with N-terminal His6-MBP fusion (Medicago truncatula). The experiment in a line: BLI; His6-MBP-MtHPt1 (104 nM) immobilised on Ni-NTA sensors; MtCRE1-IC at 2.5, 5, 10, 20 nM; SEC buffer (25 mM HEPES pH 7.5, 50 mM NaCl, 100 mM KCl, 1 mM TCEP) with 10% Kinetic Buffer, with 0.5 mM ATP and 2 mM MgCl2; 25°C; global 1:1 fit. On the technique in general: BLI is a label-free optical method that tracks binding on a fibre tip over time.
MtHPt1 (histidine-containing phosphotransfer protein 1 of Medicago truncatula) with N-terminal His6-MBP fusion (Medicago truncatula), sequence (main, as listed by the source): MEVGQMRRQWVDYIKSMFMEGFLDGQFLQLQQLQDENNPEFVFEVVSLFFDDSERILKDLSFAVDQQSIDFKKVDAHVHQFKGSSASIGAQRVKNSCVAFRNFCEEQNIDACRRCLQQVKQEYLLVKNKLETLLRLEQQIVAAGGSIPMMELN

Data set [2] shares this target. Described as above. This is another data set of the same source.
Data set [3] concerns the molecule itself. In words: crystal structure; MtCRE1-REC-Ca, 2.5 Å, space group P3(1)21, one subunit in the asymmetric unit, dimer by a crystallographic twofold; Ca2+ bound.
Data set [4] deals with the molecule itself. In words: crystal structure; AtCRE1-REC-K, 2.15 Å, space group P2(1)2(1)2, two subunits in the asymmetric unit; K+ bound.
Data set [5] deals with the molecule itself. The experiment in a line: native gel or EMSA; Native-PAGE of AtCRE1-REC compared with monomeric PR-10 proteins of similar calculated pI.

Like-named read-outs stand apart in the source and are kept apart here.

As a reminder, the Kd is the free concentration of one partner at which half of the binding sites on the other are occupied at equilibrium, for simple one-to-one binding. A low value points to higher affinity. A word on the stoichiometry N: it is the number of molecules, sites or subunits per partner or assembly.

With “MtCRE1-IC (intracellular domain of Medicago truncatula CRE1, Ile352-Ser1003) (from UniProt G7LCC3 352-1003) (domain or fragment)”, the results for the Kd in data set [1] and in data set [2] were 12 to 54 nM and 12 nM, respectively.

B1: MtCRE1-REC (receiver domain of cytokinin receptor CRE1 from Medicago truncatula) (domain or fragment, UniProt G7LCC3 856-994, looked up)
chain: SLLFGKKILVVDDNVVNRRVAAGALKNFGADVKCADSGKAALEMLQFPHKFDACFMDIQMPEMDGFEATRRIREMERTANEETNSECGERKSEFHLPILAMTADVIHATYEECLKCGMDGYVSKPFEEENLYQAVAKFF
notes: Made by proteolysis, not cloned as a domain; residues 936-948 are missing in the map; also called MtCRE1-REC-Ca; source: recombinant MtCRE1-IC from E. coli, limited proteolysis with thermolysin, purified (Superdex 75)
On to B1, for which the binding result in data set [3] is “binds”.

B2: AtCRE1-REC, C-terminally truncated receiver domain Leu918-Phe1048 (Arabidopsis thaliana CRE1/AHK4) (domain or fragment)
chain: SNALLTGKKILVVDDNIVNRRVAAGALKKFGAEVVCAESGQVALGLLQIPHTFDACFMDIQMPQMDGFEATRQIRMMEKETKEKTNLEWHLPILAMTADVIHATYEECLKSGMDGYVSKPFEEENLYKSVAKSF
notes: cloning linker at the N-terminus (vector pMCSG68); Ser-Asn-Ala is printed for the longer construct from the same vector, Asn916-Ala917 of the linker are named for this one; AHK4/CRE1/WOL, Arabidopsis thaliana, receiver domain with a 9-residue C-terminal truncation, Leu918-Phe1048; numbers count on: UniProt Q9C5U0-2; also called AtCRE1-REC-K; source: Magic E. coli strain, purified (Ni-NTA, TEV, …)
In the case of B2, the binding result in data set [4] is on record as “binds”.

B3: AtCRE1-REC, complete receiver domain Leu918-Ser1057 (Arabidopsis thaliana CRE1/AHK4) (domain or fragment)
chain: SNALLTGKKILVVDDNIVNRRVAAGALKKFGAEVVCAESGQVALGLLQIPHTFDACFMDIQMPQMDGFEATRQIRMMEKETKEKTNLEWHLPILAMTADVIHATYEECLKSGMDGYVSKPFEEENLYKSVAKSFKPNPISPSS
notes: Ser-Asn-Ala cloning artifact at the N-terminus (vector pMCSG68); AHK4/CRE1/WOL, Arabidopsis thaliana, receiver domain Leu918-Ser1057; numbers count on: UniProt Q9C5U0-2; also called AtCRE1-REC-Mg; source: E. coli BL21 Gold, purified (Ni-NTA, TEV, Superdex75)
With B3, in data set [5], the “stoichiometry N” value is 2.

Values taken from PMC8498639, “3D Domain Swapping Dimerization of the Receiver Domain of Cytokinin Receptor CRE1 From Arabidopsis thaliana and Medicago truncatula” (Frontiers in Plant Science, 2021).
